Reference: patent US20220153847A1 (Chugai, published 2022)

T1: HLA-DQ2.5 on HLA-DQ2.5-positive PBMC B cells (human, UniProt P01909 24-254; P01920 33-261)
T1 construct: whole, on cells; also called HLA-DQ2.5+ PBMC B cell
T1 MHC II alpha: not shown
T1 MHC II beta: not shown


Columns and labels:
[1] = target: T2, HLA-DQ2.5/alpha 3 gliadin peptide complex on Ba/F3 cells (human); test: FACS, Ba/F3 cells; IC17=0%, DQN0139bb//IC17=100%;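 further: flow cytometry binding of anti-HLA-DQ antibodies at 5 µg/mL, incubated 30 min at room temperature with Ba/F3 lines presenting HLA-DQ/peptide complexes; antibody tested at 5 microgram/mL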
T2 construct: whole, on cells; also called Ba/F3-HLA-DQ2.5/alpha 3 gliadin; HLA-DQ2.5/a3 gliadin

[2] = target: T3, HLA-DQ2.5/alpha 2 gliadin peptide complex on Ba/F3 cells (human); test: FACS, Ba/F3 cells; IC17=0%, DQN0139bb//IC17=100%;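 further: flow cytometry binding of anti-HLA-DQ antibodies at 5 µg/mL, incubated 30 min at room temperature with Ba/F3 lines presenting HLA-DQ/peptide complexes; antibody tested at 5 microgram/mL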
T3 construct: whole, on cells; also called Ba/F3-HLA-DQ2.5/alpha 2 gliadin; HLA-DQ2.5/a2 gliadin

[3] = target: T4, HLA-DQ2.5/avenin 2 peptide complex on Ba/F3 cells (human); test: FACS, Ba/F3 cells; IC17=0%, DQN0139bb//IC17=100%;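 further: flow cytometry binding of anti-HLA-DQ antibodies at 5 µg/mL, incubated 30 min at room temperature with Ba/F3 lines presenting HLA-DQ/peptide complexes; antibody tested at 5 microgram/mL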
T4 construct: whole, on cells; also called Ba/F3-HLA-DQ2.5/avenin 2

[4] = target: T5, HLA-DQ2.5/alpha 1 gliadin peptide complex on Ba/F3 cells (human); test: FACS, Ba/F3 cells; IC17=0%, DQN0139bb//IC17=100%;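 further: flow cytometry binding of anti-HLA-DQ antibodies at 5 µg/mL, incubated 30 min at room temperature with Ba/F3 lines presenting HLA-DQ/peptide complexes; antibody tested at 5 microgram/mL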
T5 construct: whole, on cells; also called Ba/F3-HLA-DQ2.5/alpha 1 gliadin; HLA-DQ2.5/a1 gliadin

[5] = target: T6, HLA-DQ2.5/omega 1 gliadin peptide complex on Ba/F3 cells (human); test: FACS, Ba/F3 cells; IC17=0%, DQN0139bb//IC17=100%
T6 construct: whole, on cells; also called Ba/F3-HLA-DQ2.5/omega 1 gliadin; HLA-DQ2.5/w1 gliadin

[6] = target: T7, HLA-DQ2.5/hordein 1 peptide complex on Ba/F3 cells (human); test: FACS, Ba/F3 cells; IC17=0%, DQN0139bb//IC17=100%
T7 construct: whole, on cells; also called Ba/F3-HLA-DQ2.5/hordein 1

[7] = target: T8, HLA-DQ2.5/gamma 2 gliadin peptide complex on Ba/F3 cells (human); test: FACS, Ba/F3 cells; IC17=0%, DQN0139bb//IC17=100%
T8 construct: whole, on cells; also called Ba/F3-HLA-DQ2.5/gamma 2 gliadin; HLA-DQ2.5/g2 gliadin

[8] = target: T9, HLA-DQ2.5/BC hordein peptide complex on Ba/F3 cells (human); test: FACS, Ba/F3 cells; IC17=0%, DQN0139bb//IC17=100%
T9 construct: whole, on cells; also called Ba/F3-HLA-DQ2.5/BC hordein

[9] = target: T10, HLA-DQ2.5/secalin 2 peptide complex on Ba/F3 cells (human); test: FACS, Ba/F3 cells; IC17=0%, DQN0139bb//IC17=100%
T10 construct: whole, on cells; also called Ba/F3-HLA-DQ2.5/secalin 2

[10] = target: T11, HLA-DQ2.5/CLIP peptide complex on Ba/F3 cells (human); test: FACS, Ba/F3 cells; IC17=0%, DQN0139bb//IC17=100%
T11 construct: whole, on cells; also called Ba/F3-HLA-DQ2.5/CLIP

[11] = target: T12, HLA-DQ2.5/secalin 1 peptide complex on Ba/F3 cells (human); test: FACS, Ba/F3 cells; IC17=0%, DQN0139bb//IC17=100%
T12 construct: whole, on cells; also called Ba/F3-HLA-DQ2.5/secalin 1

[12] = target: T13, HLA-DQ2.5/omega 2 gliadin peptide complex on Ba/F3 cells (human); test: FACS, Ba/F3 cells; IC17=0%, DQN0139bb//IC17=100%
T13 construct: whole, on cells; also called Ba/F3-HLA-DQ2.5/omega 2 gliadin; HLA-DQ2.5/w2 gliadin

[13] = target: T14, HLA-DQ2.5/hordein 2 peptide complex on Ba/F3 cells (human); test: FACS, Ba/F3 cells; IC17=0%, DQN0139bb//IC17=100%
T14 construct: whole, on cells; also called Ba/F3-HLA-DQ2.5/hordein 2

[14] = target: T15, HLA-DQ2.5/avenin 3 peptide complex on Ba/F3 cells (human); test: FACS, Ba/F3 cells; IC17=0%, DQN0139bb//IC17=100%
T15 construct: whole, on cells; also called Ba/F3-HLA-DQ2.5/avenin 3

[15] = target: T16, HLA-DQ2.5/14mer 1 peptide complex on Ba/F3 cells (human); test: FACS, Ba/F3 cells; IC17=0%, DQN0139bb//IC17=100%
T16 construct: whole, on cells; also called Ba/F3-HLA-DQ2.5/14mer 1

[16] = target: T17, HLA-DQ2.5/26mer gliadin peptide complex on Ba/F3 cells (human); test: FACS, Ba/F3 cells; IC17=0%, DQN0139bb//IC17=100%
T17 construct: whole, on cells; also called Ba/F3-HLA-DQ2.5/26mer gliadin

[17] = target: T18, HLA-DQ2.5/gamma 1 gliadin peptide complex on Ba/F3 cells (human); test: FACS, Ba/F3 cells; IC17=0%, DQN0139bb//IC17=100%
T18 construct: whole, on cells; also called Ba/F3-HLA-DQ2.5/gamma 1 gliadin; HLA-DQ2.5/g1 gliadin

[18] = target: T19, HLA-DQ2.5/avenin 1 peptide complex on Ba/F3 cells (human); test: FACS, Ba/F3 cells; IC17=0%, DQN0139bb//IC17=100%
T19 construct: whole, on cells; also called Ba/F3-HLA-DQ2.5/avenin 1

[19] = target: T20, HLA-DQ2.5/alpha 1b gliadin peptide complex on Ba/F3 cells (human); test: FACS, Ba/F3 cells; IC17=0%, DQN0139bb//IC17=100%
T20 construct: whole, on cells; also called Ba/F3-HLA-DQ2.5/alpha 1b gliadin; HLA-DQ2.5/a1b gliadin

[20] = target: T21, HLA-DQ2.5/gamma 4b gliadin peptide complex on Ba/F3 cells (human); test: FACS, Ba/F3 cells; IC17=0%, DQN0139bb//IC17=100%
T21 construct: whole, on cells; also called Ba/F3-HLA-DQ2.5/gamma 4b gliadin; HLA-DQ2.5/g4b gliadin

[21] = target: T1, HLA-DQ2.5 on HLA-DQ2.5-positive PBMC B …; test: FACS, PBMC B cells; IC17=0%, DQN0139bb//IC17=100%

T11 sequence (P04233 96-124, chain 2 of 2, other chains not shown): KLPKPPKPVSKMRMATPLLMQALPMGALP

Binder | % MFI [1] [%] | % MFI [2] [%] | % MFI [3] [%] | % MFI [4] [%] | % MFI [5] [%] | % MFI [6] [%] | % MFI [7] [%] | % MFI [8] [%] | % MFI [9] [%] | % MFI [10] [%] | % MFI [11] [%] | % MFI [12] [%] | % MFI [13] [%] | % MFI [14] [%] | % MFI [15] [%] | % MFI [16] [%] | % MFI [17] [%] | % MFI [18] [%] | % MFI [19] [%] | % MFI [20] [%] | further results
DQN0344xx//DQN0385ee (bispecific antibody, human IgG1, kappa) heavy 1: QSLEESGGGLVKPGGTLTLTCTASGFSFSSSYWMCWVRQAPGKGLEWVACVYGGSDTTYYASWTKGRFTISKGSSTTVALQVTSLTAADTATYFCARDPLNYYYYGELNLWGPGTLVTVSSASTKGPSVFPLAPSSKSTSGGTAALGCLVKDYFPEPVTVSWNSGALTSGVHTFPAVLQSSGLYSLSSVVTVPSSSLGTQTYICNVNHKPSNTKVDKRVEPKSCDKTHTCPPCPAPELRRGPSVFLFPPKPKDTLMISRTPEVTCVVVDVSHEDPEVKFNWYVDGVEVHNAKTKPREEQYNSTYRVVSVLTVLHQDWLNGKEYKCKVSNKALPAPIEKTISKAKGQPREPQVYTLPPSREEMTKNQVSLTCLVKGFYPSDIAVEWESNGQPENNYKTTPPYLDSDGSFFLYSKLTVDKSRWQQGNVFSCSVMHEALHNHYTQESLSLSP light 1: AVVLTQTASPVSAAVGGTVTIRCQATENIYSGLAWYQQKPGQPPKVLIYYVSTLASGVPSRFKGSGSGTEYTLTISGVQCDDAATYYCQTYHDISNVTFGGGTKVEIKRTVAAPSVFIFPPSDEQLKSGTASVVCLLNNFYPREAKVQWKVDNALQSGNSQESVTEQDSKDCTYSLSSTLTLSKADYEKHKVYACEVTHQGLSSPVTKSFNRGEC heavy 2: QEQLEESGGDLVKPGASLTLTCTASGFSFYSSYWICWVRQAPGKGLEWIACIDTGSGSIDYASWVNGRFTISKTSSTTVTLQMTSLTVADTATYFCARDIGIDYNFWGPGTLVTVSSASTKGPSVFPLAPSSKSTSGGTAALGCLVKDYFPEPVTVSWNSGALTSGVHTFPAVLQSSGLYSLSSVVTVPSSSLGTQTYICNVNHKPSNTKVDKRVEPKSCDKTHTCPPCPAPELRRGPSVFLFPPKPKDTLMISRTPEVTCVVVDVSHEDPEVKFNWYVDGVEVHNAKTKPREEQYNSTYRVVSVLTVLHQDWLNGKEYKCKVSNKALPAPIEKTISKAKGQPREPQVYTLPPSRKEMTKNQVSLTCLVKGFYPSDIAVEWESNGQPENNYKTTPPYLDSDGSFFLYSKLTVDKSRWQQGNVFSCSVMHEALHNHYTQKSLSLSP light 2: AFELTQTPSFVEAAVGGTVTIKCQATQSISSYLNWYQQKPGQPPKLLIYYASTLASGVPSRFKGSGSGTEFSLTISGVECADAATYYCHYGISYVSFGGGTKVEIKRTVAAPSVFIFPPSDEQLKSGTASVVCLLNNFYPREAKVQWKVDNALQSGNSQESVTEQDSKDCTYSLSSTLTLSKADYEKHKVYACEVTHQGLSSPVTKSFNRGEC | 36.4 | 52.3 | 26.6 | 58.1 | 40 | 28 | 4.6 | 63.5 | 43.5 | 1.8 | 33.6 | 71.5 | 92.2 | 15.6 | 27.6 | 61.8 | 29.4 | 29.1 | 61.9 | 31.1 | % MFI [21]: 0.4%
DQN0385ee//IC17 (bispecific antibody, human IgG1, kappa) heavy 1: QEQLEESGGDLVKPGASLTLTCTASGFSFYSSYWICWVRQAPGKGLEWIACIDTGSGSIDYASWVNGRFTISKTSSTTVTLQMTSLTVADTATYFCARDIGIDYNFWGPGTLVTVSSASTKGPSVFPLAPSSKSTSGGTAALGCLVKDYFPEPVTVSWNSGALTSGVHTFPAVLQSSGLYSLSSVVTVPSSSLGTQTYICNVNHKPSNTKVDKRVEPKSCDKTHTCPPCPAPELRRGPSVFLFPPKPKDTLMISRTPEVTCVVVDVSHEDPEVKFNWYVDGVEVHNAKTKPREEQYNSTYRVVSVLTVLHQDWLNGKEYKCKVSNKALPAPIEKTISKAKGQPREPQVYTLPPSREEMTKNQVSLTCLVKGFYPSDIAVEWESNGQPENNYKTTPPYLDSDGSFFLYSKLTVDKSRWQQGNVFSCSVMHEALHNHYTQESLSLSP light 1: AFELTQTPSFVEAAVGGTVTIKCQATQSISSYLNWYQQKPGQPPKLLIYYASTLASGVPSRFKGSGSGTEFSLTISGVECADAATYYCHYGISYVSFGGGTKVEIKRTVAAPSVFIFPPSDEQLKSGTASVVCLLNNFYPREAKVQWKVDNALQSGNSQESVTEQDSKDCTYSLSSTLTLSKADYEKHKVYACEVTHQGLSSPVTKSFNRGEC heavy 2: QVQLQQSGPQLVRPGASVKISCKASGYSFTSYWMHWVNQRPGQGLEWIGMIDPSYSETRLNQKFKDKATLTVDKSSSTAYMQLSSPTSEDSAVYYCALYGNYFDYWGQGTTLTVSSASTKGPSVFPLAPSSKSTSGGTAALGCLVKDYFPEPVTVSWNSGALTSGVHTFPAVLQSSGLYSLSSVVTVPSSSLGTQTYICNVNHKPSNTKVDKRVEPKSCDKTHTCPPCPAPELRRGPSVFLFPPKPKDTLMISRTPEVTCVVVDVSHEDPEVKFNWYVDGVEVHNAKTKPREEQYNSTYRVVSVLTVLHQDWLNGKEYKCKVSNKALPAPIEKTISKAKGQPREPQVYTLPPSRKEMTKNQVSLTCLVKGFYPSDIAVEWESNGQPENNYKTTPPYLDSDGSFFLYSKLTVDKSRWQQGNVFSCSVMHEALHNHYTQKSLSLSP light 2: DIQMTQSSSSFSVSLGDRVTITCKASEDIYNRLAWYQQKPGNAPRLLISGATSLETGVPSRFSGSGSGKDYTLSITSLQTEDVATYYCQQYWSTPYTFGGGTKLEVKRTVAAPSVFIFPPSDEQLKSGTASVVCLLNNFYPREAKVQWKVDNALQSGNSQESVTEQDSKDSTYSLSSTLTLSKADYEKHKVYACEVTHQGLSSPVTKSFNRGEC | 20.9 | 85.6 | 8.3 | 6 | 17.2 | 24.7 | 3.4 | 68.1 | 34.4 | 1.3 | 11.8 | 75.2 | 98.3 | 0.2 | 23.3 | 70.5 | 26 | 4 | 19.2 | 32.4 | % MFI [21]: 0.3%
